In US20130209458A1 one finds Kd data, which are given here for two substances.

This test addresses MUC1 (TA-Muc1) on the human tumor cell line ZR-75-1 (human) (UniProt P15941). In words: Scatchard analysis, 111In-labelled antibody on ZR-75-1 cells.

Substance PankoMab expressed in CHO (antibody) had a Kd of 7.8 nM. This lies in the single-digit nanomolar range.

Substance PankoMab expressed in GT-5s (antibody) yielded a Kd of 3.33 nM. Against the preceding substance, the Kd is about 2.3-fold lower.

Usually Kd stands for a measure of binding affinity in units of concentration. A lower Kd goes with tighter binding.
